Experimental data reported in patent US7078491 (Amgen, dated 2006).

Target: T1, flag-tagged hTERT protein from transfected 293T cells (human, UniProt O14746 1-1132)
T1 construct: also called hTERT from 293T cells; 293T lysate
Test: immunoprecipitation from 293T lysate, Western blot with peptide polyclonal antibody
Method: Immunoprecipitation experiments were also carried out to verify the specificity of the 4A5 and 4B5 monoclonal antibodies. Protein G Sepharose beads (Pharmacia) were incubated with anti-mouse IgG (Amersham Biotech) in CHAPS buffer (0.5% CHAPS, 10 mM TRIS, 1 mM NaCl, 10% glycerol, 1 mM DTT, RNase inhibitor, Complete Protease Inhibitor; Boehringer Mannheim) at room temperature for 1 to 4 hours. The beads were washed and then incubated again at room temperature for 1 to 4 hours with 2 µg of one of the following antibodies: anti-GST, peptide polyclonal antibody, RT polyclonal antibody, 4A5 monoclonal antibody, 4B5 monoclonal antibody. For the negative control 4G6 antibody, the beads were incubated with 4G6 antibody in CHAPS buffer.
Following the incubation, the beads were washed with the aforementioned buffer and then incubated in the aforementioned buffer containing either 50 µl of hTERT-s200 generated by the TNT reaction on rabbit reticulocyte (see upper panels in FIG. 2) or 100 µl of 293T lysate (see lower panel in FIG. 2) for 1 to 4 hours at 4° C. The beads were washed again in the aforementioned buffer, the excess buffer removed form the beads and suspended in 4× SDS loading dye (see Sambrook et al, supra.). […] Western blotting was carried out as described above and probed with 0.28 µg/ml of peptide polyclonal hTERT antibody and binding was detected with the ECL method. […]

T1 sequence (O14746 whole entry): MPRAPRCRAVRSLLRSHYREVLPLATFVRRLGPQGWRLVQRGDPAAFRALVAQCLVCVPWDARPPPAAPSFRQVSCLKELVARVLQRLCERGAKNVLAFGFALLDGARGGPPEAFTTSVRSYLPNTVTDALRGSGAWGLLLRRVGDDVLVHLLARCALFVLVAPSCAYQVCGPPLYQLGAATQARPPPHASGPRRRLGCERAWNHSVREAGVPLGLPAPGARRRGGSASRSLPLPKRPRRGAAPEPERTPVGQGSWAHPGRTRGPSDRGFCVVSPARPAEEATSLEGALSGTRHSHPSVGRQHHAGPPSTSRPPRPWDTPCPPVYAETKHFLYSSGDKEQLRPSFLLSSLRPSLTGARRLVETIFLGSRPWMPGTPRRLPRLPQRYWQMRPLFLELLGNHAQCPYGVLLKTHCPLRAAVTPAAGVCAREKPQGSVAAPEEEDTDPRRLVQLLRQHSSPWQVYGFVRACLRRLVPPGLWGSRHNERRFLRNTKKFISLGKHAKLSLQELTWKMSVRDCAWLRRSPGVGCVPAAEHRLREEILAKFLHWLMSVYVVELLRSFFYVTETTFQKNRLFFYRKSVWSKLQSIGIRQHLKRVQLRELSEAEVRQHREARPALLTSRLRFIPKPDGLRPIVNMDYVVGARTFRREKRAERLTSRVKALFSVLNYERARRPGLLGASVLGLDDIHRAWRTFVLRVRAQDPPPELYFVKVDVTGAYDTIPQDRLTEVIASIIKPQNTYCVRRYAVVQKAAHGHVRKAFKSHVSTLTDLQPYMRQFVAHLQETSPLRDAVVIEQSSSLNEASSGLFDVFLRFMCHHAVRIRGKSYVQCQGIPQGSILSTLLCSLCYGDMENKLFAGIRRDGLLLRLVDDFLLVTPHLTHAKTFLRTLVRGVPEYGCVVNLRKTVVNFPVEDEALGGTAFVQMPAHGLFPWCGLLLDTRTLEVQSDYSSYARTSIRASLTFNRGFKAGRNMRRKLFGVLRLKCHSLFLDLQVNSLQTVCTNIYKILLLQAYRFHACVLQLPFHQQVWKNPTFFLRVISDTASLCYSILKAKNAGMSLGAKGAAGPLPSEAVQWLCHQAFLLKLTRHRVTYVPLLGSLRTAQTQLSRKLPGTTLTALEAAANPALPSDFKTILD

B1: 4A5 monoclonal antibody (hybridoma 4A5, ATCC PTA-2412) (antibody, V domains shown)
VH: EVKLVESGGGLVKPGGSLKLSCAASGFTFSSYAMSWVRQTPEKRLEWVASISSGGNTYYPDNVQGRFTISRDNARNILYLQMSSLRSEDTAMFYCAREGVYDTYGGVDYWGQGTTLTVSS
VL: DIVLTQSPTSLAVSLGQRATISCKASQSVDYDGDSFINWYQQTPGQPPKLLIYAASNLASGIPARFSGSGSGTDFTLNIHPVEEEDAATYYCQQSNEAPPTFGGGTKLEI
notes: Mouse monoclonal from hybridoma, characterized as IgG2B type, kappa light chain primers used; also called 4A5 mAb; 45A
B1: binds.
